What was measured:
IKKε = IKKε (UniProt Q14164); assay: anti-GEF-H1 co-IP, IKKε blot; settings: sites S886
IRF5 = IRF5 (UniProt Q13568); assay: anti-GEF-H1 co-IP, IRF5 blot; settings: reference: wild type; sites S886

Substance: GEF-H1 (from UniProt Q92974) S886A
- binding against the reference (IKKε; reference: wild type): stronger
- binding against the reference (IRF5): stronger

Substance: GEF-H1 (from UniProt Q92974) S399A/S886A
- binding against the reference (IKKε; reference: S399A): gained

Substance: GEF-H1 (from UniProt Q92974) S324A/S886A
- binding against the reference (IKKε; reference: S324A): stronger

Source: publication PMC6430831
